# Test results as given in US20140287990A1 (published 2014).
# T1: Pf MSP1-42, C-terminal fragment of the P. falciparum merozoite surface protein MSP1 (Plasmodium falciparum, UniProt Q8I0U8 1327-1699)
# T1 construct: domain: MSP1-42; Immobilised on CM5 sensor chips
# T1 sequence: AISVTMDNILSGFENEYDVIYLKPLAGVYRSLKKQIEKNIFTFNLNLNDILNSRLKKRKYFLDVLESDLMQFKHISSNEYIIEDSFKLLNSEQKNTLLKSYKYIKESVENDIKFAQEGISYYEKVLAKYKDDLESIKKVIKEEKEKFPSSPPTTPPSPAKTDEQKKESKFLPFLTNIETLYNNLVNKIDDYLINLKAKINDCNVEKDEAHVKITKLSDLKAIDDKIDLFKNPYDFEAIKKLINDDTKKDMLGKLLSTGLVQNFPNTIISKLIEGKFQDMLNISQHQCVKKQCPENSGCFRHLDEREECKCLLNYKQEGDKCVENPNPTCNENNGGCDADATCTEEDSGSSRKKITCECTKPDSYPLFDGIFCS
# T2: HIV-1 nef (HIV-1, UniProt P04601 1-206)
# T2 sequence: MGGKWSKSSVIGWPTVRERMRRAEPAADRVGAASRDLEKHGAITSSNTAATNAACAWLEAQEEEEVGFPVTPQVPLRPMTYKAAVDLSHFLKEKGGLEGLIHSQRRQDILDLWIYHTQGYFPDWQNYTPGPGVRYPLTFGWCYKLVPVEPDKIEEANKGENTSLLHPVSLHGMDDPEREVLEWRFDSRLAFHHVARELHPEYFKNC
# T3: ICAM-2 (UniProt P13598 25-223)
# T3 sequence: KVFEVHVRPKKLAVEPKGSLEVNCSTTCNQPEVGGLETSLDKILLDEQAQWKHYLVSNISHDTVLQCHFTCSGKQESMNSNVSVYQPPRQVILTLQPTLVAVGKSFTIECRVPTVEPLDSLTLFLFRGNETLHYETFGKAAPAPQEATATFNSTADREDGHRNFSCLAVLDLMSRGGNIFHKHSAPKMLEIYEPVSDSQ
# T4: ICAM-3 (UniProt P32942 30-485, limits assumed)
# T4 sequence (looked up): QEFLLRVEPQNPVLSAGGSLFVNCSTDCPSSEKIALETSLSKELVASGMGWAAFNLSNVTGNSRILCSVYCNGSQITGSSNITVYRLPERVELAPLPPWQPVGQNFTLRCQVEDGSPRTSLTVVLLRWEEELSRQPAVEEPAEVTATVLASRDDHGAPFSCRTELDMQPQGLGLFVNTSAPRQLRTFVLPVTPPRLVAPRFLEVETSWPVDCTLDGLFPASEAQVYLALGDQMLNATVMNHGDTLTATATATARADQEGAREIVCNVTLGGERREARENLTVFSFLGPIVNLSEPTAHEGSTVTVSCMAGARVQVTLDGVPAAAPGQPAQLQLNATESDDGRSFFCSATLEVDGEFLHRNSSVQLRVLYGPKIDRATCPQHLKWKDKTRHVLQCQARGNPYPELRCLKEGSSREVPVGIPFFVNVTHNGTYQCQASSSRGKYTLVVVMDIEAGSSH
# B1: Laz from Neisseria gonorrhoeae F62 (other)
# chain: CSQEPAAPAAEATPAGEAPASEAPAAEAAPADAAEAPAAGNCAATVESNDNMQFNTKDIQVSKACKEFTITLKHTGTQPKASMGHNLVIAKAEDMDGVFKDGVGAADTDYVKPDDARVVAHTKLIGGGEESSLTLDPAKLADGDYKFACTFPGHGALMNGKVTLVD
# notes: also called Neisserial Laz protein
# B2: azurin from Pseudomonas aeruginosa (other)
# chain: AECSVDIQGNDQMQFNTNAITVDKSCKQFTVNLSHPGNLPKNVMGHNWVLSTAADMQGVVTDGMASGLDKDYLKPDDSRVIAHTKLIGSGEKDSVTFDVSKLKEGEQYMFFCTFPGHSALMKGTLTLK
# notes: Recombinant cupredoxin (copper protein) expressed in E. coli JM109 from pUC19-paz; also called wt azurin; wt-azurin
# B3: Pf MSP1-19, C-terminal fragment of the P. falciparum merozoite surface protein MSP1 (other)
# chain: NISQHQCVKKQCPENSGCFRHLDEREECKCLLNYKQEGDKCVENPNPTCNENNGGCDADATCTEEDSGSSRKKITCECTKPDSYPLFDGIFCS
# notes: domain: MSP1-19; Immobilised on CM5 sensor chips
# B4: DC-SIGN (DC-specific intercellular adhesion molecule 3-grabbing nonintegrin) (receptor, UniProt Q9NNX6 62-404, looked up)
# chain: KVPSSISQEQSRQDAIYQNLTQLKAAVGELSEKSKLQEIYQELTQLKAAVGELPEKSKLQEIYQELTRLKAAVGELPEKSKLQEIYQELTWLKAAVGELPEKSKMQEIYQELTRLKAAVGELPEKSKQQEIYQELTRLKAAVGELPEKSKQQEIYQELTRLKAAVGELPEKSKQQEIYQELTQLKAAVERLCHPCPWEWTFFQGNCYFMSNSQRNWHDSITACKEVGAQLVVIKSAEEQNFLQLQSSRSNRFTWMGLSDLNQEGTWQWVDGSPLLPSFKQYWNRGEPNNVGEEDCAEFSGNGWNDDKCNLAKFWICKKSAASCSRDEEQFLSPAPATPNPPPA
# notes: Immobilised on a CM5 sensor chip
# Experiments:
# [1] = biological target: T1, Pf MSP1-42, C-terminal fragment of the …; assay: SPR (Biacore X), MSP1-42 immobilised on CM5, equilibrium response fitted to Req=Rmax/(1+(Kd/C))
# [2] = biological target: B4; assay: SPR, DC-SIGN immobilised on CM5, proteins injected at 0-100 nM, equilibrium response fitted to Req=Rmax/(1+(Kd/C))
# CD4 [3] = biological target: T5, CD4 (UniProt P01730 26-396); assay: SPR, azurin immobilised on CM5 (Az-CM5), 1 mg/ml CM5 in HBS-EP running buffer
# T5 construct: Bought protein; Used both immobilised on CM5 and as eluent
# HIV-1 gag = HIV-1 gag (HIV-1, UniProt P04591 1-500); assay: SPR, azurin immobilised on CM5 (target taken from the preceding sentence)
# HIV-1 nef = biological target: T2, HIV-1 nef; assay: as above
# CD4 [4] = biological target: T5, CD4; assay: SPR, CD4 immobilised on CM5 (CD4-CM5), equilibrium response fitted to Req=Rmax/(1+(Kd/C))
# ICAM-1 = ICAM-1 (UniProt P05362 28-480); assay: SPR, azurin immobilised on CM5
# HIV-1 gp41 = HIV-1 gp41 (HIV-1, UniProt P04578 512-684); assay: SPR, azurin immobilised on CM5
# ICAM-2 = biological target: T3, ICAM-2; assay: SPR, azurin immobilised on CM5
# NCAM = biological target: T6, NCAM (UniProt P13591 20-718); assay: SPR, azurin immobilised on CM5, 1 mg/ml CM5 (carboxymethyldextran) in HBS-EP running buffer
# T6 construct: also called Neural Cell Adhesion Molecule
# ICAM-3 [5] = biological target: T4, ICAM-3; assay: as above
# [6] = biological target: T7, GST-Azu 36-128 (GST fused in frame to azurin amino acids 36 to 128) (Pseudomonas aeruginosa, UniProt P08515 1-218 = GST); assay: SPR, MSP1-19 immobilised on CM5
# T7 construct: Azurin fragment cloned into the BamHI and EcoRI sites of pGEX-5X
# [7] = biological target: T8, glutathione S-transferase (GST) (UniProt P08515 1-218 = GST); assay: SPR, MSP1-19 immobilised on CM5
# T8 construct: Control protein in the SPR experiments
# [8] = biological target: T9, GST-Azu 36-89 (GST fused in frame to azurin amino acids 36 to 89) (Pseudomonas aeruginosa, UniProt P08515 1-218 = GST); assay: SPR, MSP1-19 immobilised on CM5
# T9 construct: also called pGST-azu 36-89 product
# [9] = biological target: B1; assay: SPR (Biacore X), MSP1-19 immobilised on CM5, equilibrium response fitted to Req=Rmax/(1+(Kd/C))
# [10] = biological target: B2; assay: as above
# [11] = biological target: GST-Azu 88-113 (GST fused in frame to azurin amino acids 88 to 113) (Pseudomonas aeruginosa, UniProt P08515 1-218 = GST); assay: SPR, MSP1-19 immobilised on CM5, GST-Azu fusion series
# [12] = biological target: B3; assay: SPR, MSP1-19 immobilised on CM5
# [13] = biological target: B3; assay: SPR (Biacore X), MSP1-19 immobilised on CM5, equilibrium response fitted to Req=Rmax/(1+(Kd/C))
# ICAM-3 [14] = biological target: T4, ICAM-3; assay: SPR, DC-SIGN immobilised on CM5, proteins injected at 0-100 nM, equilibrium response fitted to Req=Rmax/(1+(Kd/C))
# T9 sequence (P08515 1-218, tags or fused parts left off): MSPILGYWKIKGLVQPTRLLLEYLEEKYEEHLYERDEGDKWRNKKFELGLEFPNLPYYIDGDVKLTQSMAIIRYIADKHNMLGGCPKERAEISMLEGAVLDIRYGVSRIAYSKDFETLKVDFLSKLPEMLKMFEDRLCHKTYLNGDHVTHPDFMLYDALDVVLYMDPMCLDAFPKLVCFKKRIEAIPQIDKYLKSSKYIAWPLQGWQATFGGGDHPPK
# Sequence of GST-Azu 88-113 (GST fused in frame to azurin amino acids 88 to 113) (P08515 1-218, tags left off): as the sequence (P08515 1-218, tags or fused parts left off) above
# T8 sequence (P08515 whole entry): as the sequence (P08515 1-218, tags or fused parts left off) above
# Sequence of ICAM-1 (P05362 28-480 limits assumed): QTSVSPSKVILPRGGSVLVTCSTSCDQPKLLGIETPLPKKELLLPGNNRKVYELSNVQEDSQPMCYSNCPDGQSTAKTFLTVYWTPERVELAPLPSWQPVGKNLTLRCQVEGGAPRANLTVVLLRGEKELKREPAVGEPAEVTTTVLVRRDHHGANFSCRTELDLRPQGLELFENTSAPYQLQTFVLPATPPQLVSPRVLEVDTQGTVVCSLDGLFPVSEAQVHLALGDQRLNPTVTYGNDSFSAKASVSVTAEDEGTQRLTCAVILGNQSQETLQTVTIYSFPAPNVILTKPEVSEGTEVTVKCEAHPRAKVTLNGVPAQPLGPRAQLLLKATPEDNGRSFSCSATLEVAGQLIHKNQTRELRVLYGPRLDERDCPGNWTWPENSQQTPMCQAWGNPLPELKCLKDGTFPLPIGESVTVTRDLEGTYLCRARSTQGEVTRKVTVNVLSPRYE
binder,measurement,setting,value
B1,Kd,[1],45.6 nM
B2,Kd,[2],0.83 nM
same,Kd,CD4 [3],25.1 nM
same,binding result,HIV-1 gag,no binding
same,binding result,HIV-1 nef,no binding
same,Kd,[1],54.3 nM
same,Kd,CD4 [4],36.9 nM
same,binding result,ICAM-1,no binding
same,binding result,HIV-1 gp41,no binding
same,binding result,ICAM-2,no binding
same,Kd,NCAM,20 nM
same,Kd,ICAM-3 [5],19.5 nM
B3,Kd,[6],24.5 nM
same,binding result,[7],no binding (tested: 0.05-300 nM (FIG. 7 legend))
same,Kd,[8],20.9 nM
same,Kd,[9],26.2 nM
same,Kd,[10],32.2 nM
same,binding result,[11],no binding
"CSQEPAAPAAEATPAGEAPASEAPAAEAAPADAAEAPAA (other, not shown: glutathione S-transferase (GST) of the commercial pGEX-5X-3 / pET29a-gst vectors) [H.8-GST (H.8 epitope fused in the N-terminal of GST)]",binding result,[12],no binding (tested: 0.05-300 nM (FIG. 7 legend))
"H.8-azurin (H.8 epitope of Laz fused in frame to the N-terminal part of P. aeruginosa azurin) (other, also called H.8-Paz; H.8-paz) CSQEPAAPAAEATPAGEAPASEAPAAEAAPADAAEAPAAAECSVDIQGNDQMQFNTNAITVDKSCKQFTVNLSHPGNLPKNVMGHNWVLSTAADMQGVVTDGMASGLDKDYLKPDDSRVIAHTKLIGSGEKDSVTFDVSKLKEGEQYMFFCTFPGHSALMKGTLTLK",Kd,[1],14.3 nM
same,Kd,[13],11.8 nM
B4,Kd,ICAM-3 [14],0.93 nM
